These results are taken from the supplement of paper PMC9112550, “Optimization of the antimicrobial peptide Bac7 by deep mutational scanning” (BMC Biology, 2022).
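Further: peptides expressed intracellularly from a pBAD plasmid library in pooled LB shake-flask culture, induced with 0.3% L-arabinose, DNA abundance read by NGS, three biological replicates, DESeq2 with apeglm shrinkage.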

The test system of the series is Escherichia coli TOP10. Kind of series: shrunken log2 fold change of peptide-encoding DNA abundance (4.5 h post-induction vs induction); higher = less antimicrobial activity (less host growth inhibition). Conditions: time post-induction: 4.5 h; library: site-saturation at positions 5, 18, 19, 20.
For RRIRCRPPRLPRPRPRPKIRPRP, the “shrunken log2 fold change” value turned out to be 0.0994.
Take RRIRRRPPRLPRPRPRPWPDPRP: the “shrunken log2 fold change” value stood at 0.0719.
With RRIRVRPPRLPRPRPRPSLHPRP the figure was -0.415.
As to RRIRCRPPRLPRPRPRPSDMPRP, the “shrunken log2 fold change” value is -0.415.
With RRIRYRPPRLPRPRPRPYIQPRP the figure was -0.294.
For RRIRGRPPRLPRPRPRPYEDPRP, the “shrunken log2 fold change” value was -0.017.
In the case of RRIRDRPPRLPRPRPRPVMRPRP, the “shrunken log2 fold change” value came out at 0.592.
The figure for RRIRERPPRLPRPRPRPTCWPRP is 0.0288; for RRIRCRPPRLPRPRPRPKPEPRP it is 0.377.
With RRIRRRPPRLPRPRPRPFPAPRP, the “shrunken log2 fold change” value came to 0.731.
Turning to RRIRLRPPRLPRPRPRPRRSPRP, the “shrunken log2 fold change” value is -0.169.
For RRIRTRPPRLPRPRPRPTNHPRP, the “shrunken log2 fold change” value was -0.622.
Turning to RRIRMRPPRLPRPRPRPCWGPRP, the “shrunken log2 fold change” value was -0.078.
With RRIRIRPPRLPRPRPRPMAFPRP the figure was -0.0587; with RRIRPRPPRLPRPRPRPMDLPRP, -0.00399.
With RRIRVRPPRLPRPRPRPANDPRP the figure was 0.0219.
RRIRGRPPRLPRPRPRPESKPRP: the “shrunken log2 fold change” value is 1.32.
The figure for RRIRKRPPRLPRPRPRPHYWPRP is -0.047; for RRIRCRPPRLPRPRPRPVPLPRP it is 0.00193.
The figure for RRIRPRPPRLPRPRPRPDPCPRP is -0.0908; for RRIRGRPPRLPRPRPRPSCGPRP it is 0.451; for RRIRFRPPRLPRPRPRPESYPRP it is -0.0666.
Consider RRIRMRPPRLPRPRPRPNATPRP, for which the “shrunken log2 fold change” value turned out to be 2.16.
The figure for RRIRTRPPRLPRPRPRPTWEPRP is 0.95.
As to RRIRARPPRLPRPRPRPHLTPRP, the “shrunken log2 fold change” value was -0.145.
In the case of RRIRFRPPRLPRPRPRPQERPRP, the “shrunken log2 fold change” value turned out to be 0.0046.
The figure for RRIRQRPPRLPRPRPRPWSSPRP is -0.0435; for RRIRERPPRLPRPRPRPNHVPRP it is -0.25.
Turning to RRIRNRPPRLPRPRPRPCWKPRP, the “shrunken log2 fold change” value was -0.0657.
On to RRIRIRPPRLPRPRPRPAFNPRP, for which the “shrunken log2 fold change” value is -0.0935.
Consider RRIRWRPPRLPRPRPRPNTGPRP, for which the “shrunken log2 fold change” value was -0.096.
On to RRIRPRPPRLPRPRPRPITKPRP, for which the “shrunken log2 fold change” value was -0.0256.
Take RRIRPRPPRLPRPRPRPNQYPRP: the “shrunken log2 fold change” value is -0.509.
On to RRIRWRPPRLPRPRPRPDHFPRP, for which the “shrunken log2 fold change” value was -0.0288.
For RRIRTRPPRLPRPRPRPLRSPRP, the “shrunken log2 fold change” value is 0.387.
Take RRIRGRPPRLPRPRPRPWDHPRP: the “shrunken log2 fold change” value was determined as 0.0661.
In the case of RRIRYRPPRLPRPRPRPQLKPRP, the “shrunken log2 fold change” value is -0.526.
Regarding RRIRIRPPRLPRPRPRPSLLPRP, the “shrunken log2 fold change” value was -0.374.
As to RRIRWRPPRLPRPRPRPMQYPRP, the “shrunken log2 fold change” value is 0.0439.
As to RRIRHRPPRLPRPRPRPRSKPRP, the “shrunken log2 fold change” value was 3.34.
With RRIRARPPRLPRPRPRPKPHPRP, the “shrunken log2 fold change” value amounted to 0.579.
As for RRIRGRPPRLPRPRPRPYKCPRP, the “shrunken log2 fold change” value was -0.00955.
Consider RRIRKRPPRLPRPRPRPNLKPRP, for which the “shrunken log2 fold change” value worked out at 0.286.
Turning to RRIRIRPPRLPRPRPRPGTFPRP, the “shrunken log2 fold change” value was -0.0863.
RRIRHRPPRLPRPRPRPHLQPRP: the “shrunken log2 fold change” value was -0.129.
The figure for RRIRARPPRLPRPRPRPNTQPRP is -0.0663; for RRIRKRPPRLPRPRPRPEGSPRP it is 0.102; for RRIRSRPPRLPRPRPRPFMEPRP it is -0.54.
As to RRIRARPPRLPRPRPRPQMKPRP, the “shrunken log2 fold change” value is 0.433.
On to RRIRERPPRLPRPRPRPQPWPRP, for which the “shrunken log2 fold change” value was -0.0127.
